The text below walks through data of article PMC8121154, “The effects of pH and NaCl concentration on the structure of β‐casein from buffalo milk” (Food Science & Nutrition, 2021).

This series deals with the molecule itself. Description: dynamic light scattering; purified β‐CN in 10 mM sodium phosphate buffer at pH 5.5 and pH 5.0, room temperature; aggregates, micelles of 100 nm at pH 5.0.

B1: native β‐casein purified from buffalo milk (natural protein, buffalo (purified from buffalo milk), UniProt Q9TSI0 16-224, looked up)
chain: RELEELNVPGEIVESLSSSEESITHINKKIEKFQSEEQQQMEDELQDKIHPFAQTQSLVYPFPGPIPKSLPQNIPPLTQTPVVVPPFLQPEIMGVSKVKEAMAPKHKEMPFPKYPVEPFTESQSLTLTDVENLHLPLPLLQSWMHQPPQPLPPTVMFPPQSVLSLSQSKVLPVPQKAVPYPQRDMPIQAFLLYQEPVLGPVRGPFPIIV
notes: β‐casein of buffalo milk (water buffalo), native protein purified from milk; single band of approximately 25 kDa on SDS-PAGE; Native milk protein; also called β‐CN; buffalo β‐CN
With B1, the binding result was “binds”.
